Experimental data as given in the Human Domainome abundance scans (Beltran et al. 2025).
± gives the uncertainty stated by the source.

Experiment: abundance fitness (aPCA) (normalised: wild type 0, dead -1); higher = more abundant; growth selection in yeast, the domain comes from the species named
Conditions: Saccharomyces cerevisiae (strain ATCC 204508 / S288c)

| Substance | abundance fitness |
| --- | --- |
| E3 ubiquitin-protein ligase RSP5 R346W, P39940 | -0.017 ± 0.073 |
| E3 ubiquitin-protein ligase RSP5 R346Y, P39940 | 0.068 ± 0.079 |
| E3 ubiquitin-protein ligase RSP5 R355C, P39940 | -0.17 ± 0.052 |
| E3 ubiquitin-protein ligase RSP5 R355D, P39940 | -0.462 ± 0.088 |
| E3 ubiquitin-protein ligase RSP5 R355E, P39940 | -0.159 ± 0.053 |
| E3 ubiquitin-protein ligase RSP5 R355F, P39940 | -0.057 ± 0.2 |
| E3 ubiquitin-protein ligase RSP5 R355G, P39940 | -0.186 ± 0.041 |
| E3 ubiquitin-protein ligase RSP5 R355H, P39940 | -0.101 ± 0.063 |
| E3 ubiquitin-protein ligase RSP5 R355I, P39940 | -0.35 ± 0.086 |
| E3 ubiquitin-protein ligase RSP5 R355K, P39940 | 0.033 ± 0.066 |
| E3 ubiquitin-protein ligase RSP5 R355L, P39940 | -0.192 ± 0.049 |
| E3 ubiquitin-protein ligase RSP5 R355M, P39940 | -0.065 ± 0.07 |
| E3 ubiquitin-protein ligase RSP5 R355N, P39940 | -0.008 ± 0.069 |
| E3 ubiquitin-protein ligase RSP5 R355P, P39940 | -0.64 ± 0.064 |
| E3 ubiquitin-protein ligase RSP5 R355Q, P39940 | -0.013 ± 0.069 |
| E3 ubiquitin-protein ligase RSP5 R355T, P39940 | -0.257 ± 0.068 |
| E3 ubiquitin-protein ligase RSP5 R355V, P39940 | -0.425 ± 0.045 |
| E3 ubiquitin-protein ligase RSP5 R363C, P39940 | -0.219 ± 0.068 |
| E3 ubiquitin-protein ligase RSP5 R363D, P39940 | -0.725 ± 0.067 |
| E3 ubiquitin-protein ligase RSP5 R363E, P39940 | -0.443 ± 0.057 |
| E3 ubiquitin-protein ligase RSP5 R363F, P39940 | -0.805 ± 0.11 |
| E3 ubiquitin-protein ligase RSP5 R363G, P39940 | -0.276 ± 0.041 |
| E3 ubiquitin-protein ligase RSP5 R363H, P39940 | -0.398 ± 0.066 |
| E3 ubiquitin-protein ligase RSP5 R363I, P39940 | -0.473 ± 0.061 |
| E3 ubiquitin-protein ligase RSP5 R363K, P39940 | -0.41 ± 0.057 |
| E3 ubiquitin-protein ligase RSP5 R363L, P39940 | -0.377 ± 0.047 |

| Substance | abundance fitness |
| --- | --- |
| E3 ubiquitin-protein ligase RSP5 R363M, P39940 | -0.233 ± 0.061 |
| E3 ubiquitin-protein ligase RSP5 R363N, P39940 | -0.357 ± 0.069 |
| E3 ubiquitin-protein ligase RSP5 R363Q, P39940 | -0.367 ± 0.06 |
| E3 ubiquitin-protein ligase RSP5 R363S, P39940 | -0.262 ± 0.049 |
| E3 ubiquitin-protein ligase RSP5 R363T, P39940 | -0.256 ± 0.056 |
| E3 ubiquitin-protein ligase RSP5 R363V, P39940 | -0.437 ± 0.046 |
| E3 ubiquitin-protein ligase RSP5 R363W, P39940 | -0.511 ± 0.06 |
| E3 ubiquitin-protein ligase RSP5 R363Y, P39940 | -0.667 ± 0.08 |
| E3 ubiquitin-protein ligase RSP5 R364A, P39940 | 0.113 ± 0.055 |
| E3 ubiquitin-protein ligase RSP5 R364D, P39940 | 0.126 ± 0.067 |
| E3 ubiquitin-protein ligase RSP5 R364E, P39940 | 0.129 ± 0.052 |
| E3 ubiquitin-protein ligase RSP5 R364H, P39940 | 0.163 ± 0.092 |
| E3 ubiquitin-protein ligase RSP5 R364I, P39940 | -0.088 ± 0.11 |
| E3 ubiquitin-protein ligase RSP5 R364L, P39940 | 0.074 ± 0.043 |
| E3 ubiquitin-protein ligase RSP5 R364M, P39940 | 0.051 ± 0.059 |
| E3 ubiquitin-protein ligase RSP5 R364P, P39940 | 0.072 ± 0.052 |
| E3 ubiquitin-protein ligase RSP5 R364Q, P39940 | 0.066 ± 0.054 |
| E3 ubiquitin-protein ligase RSP5 R364S, P39940 | 0.087 ± 0.05 |
| E3 ubiquitin-protein ligase RSP5 R364T, P39940 | 0.077 ± 0.057 |
| E3 ubiquitin-protein ligase RSP5 R364V, P39940 | 0.035 ± 0.049 |
| E3 ubiquitin-protein ligase RSP5 R364W, P39940 | -0.072 ± 0.048 |
| E3 ubiquitin-protein ligase RSP5 R364Y, P39940 | -0.026 ± 0.086 |
| E3 ubiquitin-protein ligase RSP5 S328A, P39940 | -0.172 ± 0.046 |
| E3 ubiquitin-protein ligase RSP5 S328C, P39940 | 0.054 ± 0.079 |
| E3 ubiquitin-protein ligase RSP5 S328D, P39940 | 0.126 ± 0.074 |
| E3 ubiquitin-protein ligase RSP5 S328G, P39940 | -0.113 ± 0.042 |

| Substance | abundance fitness |
| --- | --- |
| E3 ubiquitin-protein ligase RSP5 S328H, P39940 | -0.014 ± 0.076 |
| E3 ubiquitin-protein ligase RSP5 S328K, P39940 | 0.083 ± 0.055 |
| E3 ubiquitin-protein ligase RSP5 S328M, P39940 | 0.099 ± 0.067 |
| E3 ubiquitin-protein ligase RSP5 S328N, P39940 | 0.1 ± 0.071 |
| E3 ubiquitin-protein ligase RSP5 S328P, P39940 | -0.025 ± 0.064 |
| E3 ubiquitin-protein ligase RSP5 S328R, P39940 | -0.095 ± 0.044 |
| E3 ubiquitin-protein ligase RSP5 S328T, P39940 | -0.018 ± 0.12 |
| E3 ubiquitin-protein ligase RSP5 S328V, P39940 | -0.07 ± 0.055 |
| E3 ubiquitin-protein ligase RSP5 S328Y, P39940 | 0.036 ± 0.098 |
| E3 ubiquitin-protein ligase RSP5 S335A, P39940 | -0.063 ± 0.044 |
| E3 ubiquitin-protein ligase RSP5 S335C, P39940 | -0.147 ± 0.07 |
| E3 ubiquitin-protein ligase RSP5 S335D, P39940 | 0.205 ± 0.14 |
| E3 ubiquitin-protein ligase RSP5 S335E, P39940 | -0.031 ± 0.053 |
| E3 ubiquitin-protein ligase RSP5 S335F, P39940 | -0.205 ± 0.11 |
| E3 ubiquitin-protein ligase RSP5 S335G, P39940 | -0.108 ± 0.052 |
| E3 ubiquitin-protein ligase RSP5 S335H, P39940 | -0.079 ± 0.066 |
| E3 ubiquitin-protein ligase RSP5 S335K, P39940 | -0.049 ± 0.045 |
| E3 ubiquitin-protein ligase RSP5 S335L, P39940 | -0.202 ± 0.046 |
| E3 ubiquitin-protein ligase RSP5 S335M, P39940 | -0.086 ± 0.063 |
| E3 ubiquitin-protein ligase RSP5 S335N, P39940 | -0.015 ± 0.084 |
| E3 ubiquitin-protein ligase RSP5 S335P, P39940 | 0.047 ± 0.38 |
| E3 ubiquitin-protein ligase RSP5 S335Q, P39940 | -0.094 ± 0.051 |
| E3 ubiquitin-protein ligase RSP5 S335R, P39940 | -0.129 ± 0.051 |
| E3 ubiquitin-protein ligase RSP5 S335T, P39940 | -0.247 ± 0.087 |
| E3 ubiquitin-protein ligase RSP5 S335V, P39940 | -0.141 ± 0.051 |
| E3 ubiquitin-protein ligase RSP5 S335W, P39940 | -0.278 ± 0.064 |

| Substance | abundance fitness |
| --- | --- |
| E3 ubiquitin-protein ligase RSP5 S335Y, P39940 | -0.33 ± 0.087 |
| E3 ubiquitin-protein ligase RSP5 T326A, P39940 | -0.023 ± 0.05 |
| E3 ubiquitin-protein ligase RSP5 T326C, P39940 | -0.033 ± 0.07 |
| E3 ubiquitin-protein ligase RSP5 T326D, P39940 | 0.094 ± 0.068 |
| E3 ubiquitin-protein ligase RSP5 T326E, P39940 | 0.055 ± 0.052 |
| E3 ubiquitin-protein ligase RSP5 T326F, P39940 | -0.02 ± 0.09 |
| E3 ubiquitin-protein ligase RSP5 T326G, P39940 | -0.18 ± 0.048 |
| E3 ubiquitin-protein ligase RSP5 T326H, P39940 | -0.051 ± 0.078 |
| E3 ubiquitin-protein ligase RSP5 T326I, P39940 | -0.266 ± 0.2 |
| E3 ubiquitin-protein ligase RSP5 T326K, P39940 | 0.068 ± 0.051 |
| E3 ubiquitin-protein ligase RSP5 T326L, P39940 | -0.023 ± 0.048 |
| E3 ubiquitin-protein ligase RSP5 T326M, P39940 | 0.008 ± 0.07 |
| E3 ubiquitin-protein ligase RSP5 T326N, P39940 | 0.105 ± 0.087 |
| E3 ubiquitin-protein ligase RSP5 T326P, P39940 | -0.652 ± 0.079 |
| E3 ubiquitin-protein ligase RSP5 T326Q, P39940 | -0.071 ± 0.057 |
| E3 ubiquitin-protein ligase RSP5 T326R, P39940 | -0.068 ± 0.042 |
| E3 ubiquitin-protein ligase RSP5 T326S, P39940 | 0.014 ± 0.054 |
| E3 ubiquitin-protein ligase RSP5 T326V, P39940 | -0.008 ± 0.051 |
| E3 ubiquitin-protein ligase RSP5 T326W, P39940 | -0.207 ± 0.08 |
| E3 ubiquitin-protein ligase RSP5 T326Y, P39940 | -0.061 ± 0.072 |
| E3 ubiquitin-protein ligase RSP5 T327A, P39940 | -0.049 ± 0.046 |
| E3 ubiquitin-protein ligase RSP5 T327C, P39940 | -0.001 ± 0.06 |
| E3 ubiquitin-protein ligase RSP5 T327D, P39940 | 0.121 ± 0.07 |
| E3 ubiquitin-protein ligase RSP5 T327E, P39940 | 0.105 ± 0.056 |
| E3 ubiquitin-protein ligase RSP5 T327G, P39940 | -0.037 ± 0.046 |
